Data as given in publication PMC6039487.

Legend:
[1] = target: MC4R(L328Ter), expressed from mCherry-2A-MC4R (human) (UniProt P32245)
[2] = target: wild-type MC4R (melanocortin 4 receptor), expressed from mCherry-2A-MC4R (human) (UniProt P32245)
[3] = target: MC4R(C319Ter), expressed from mCherry-2A-MC4R (human) (UniProt P32245)

**Q.** What does the source list for α-MSH (peptide)?
**A.** EC50 of α-MSH induced cAMP production, pGloSensor luciferase cAMP assay in transfected HEK293 cells (dose-response, 10 min stimulation) [1]: 3.3 nM; EC50 of α-MSH induced cAMP production, pGloSensor luciferase cAMP assay in transfected HEK293 cells (dose-response, 10 min stimulation) [2]: 2.5 nM; EC50 of α-MSH induced cAMP production, pGloSensor luciferase cAMP assay in transfected HEK293 cells (dose-response, 10 min stimulation) [3]: 2.7 nM
